The record followed here is the DeepSol protein solubility set.

A short description of this data set: soluble on expression in E. coli; label from the status in PepcDB or PDB records.
With “MAANQNVTKKKKAVIGGIFKAELNNFLMKELAEDGYSGVEVRSTPARAEVIIMATRTQNVLGERGRRIKELTSVVQKRFGFEEGSVELYAEKVSNRGLCAVAQCESLRYKLVGGLAVRRACYGVLRFIMESGAQGVEVIVSGKLRGQRAKAMKFVDGLMIHSGHPVNDYIQQAVRHVQLRQGVIGIKVKIMLPYDPRGQNGPRNALPDHVQIVEPQEEVLPKEPHSQHKEEKKDVQVPAAQPVAPVQ”, the “soluble on expression in E. coli” value is “not soluble”. For “MSLSTKDVKELAIEQAKKFGGKLEVCPKVPIETKADLGIAYTPGVAAVSSAIHEKKERAYELTTKKNTVAVISDGSAVLGLGNIGPEAAMPVMEGKAALFKRFAGVDSIPLVLDTQDTEEIIQTVKFLAPTFGGINLEDISAPRCFEIEQRLIDELDIPVFHDDQHGTAIVVLAALYNSLKLINKKIEDIHVVINGGGSAGLSITRKFLAAGVKHIIIVDRAGILSETDTALPPHHAEIAKLTNREHRTGDLATALEGADVFVGVSAPGVLKPEWIQQMNEQPVIFAMANPVPEIFPDEALAAGAYIVGTGRSDFPNQINNVLAFPGIFRGALDARAKKITIEMQIAAAKGIAKLIPDNELTPTNIIPDPFQEGVAKVVAESVRNAVKETNEGHHHHHH”, the “soluble on expression in E. coli” value is recorded as “soluble”. Take “IDFRGIEKQGGRVLIDVSDTGIPIDVTQVGKEIVVNFLNTKIPLNLMKRYDVSDFHSPVQIITMQQEGKKVRMTILSKGDYGHFVYQVNKQFMVDVFPLTAEEIR”: the “soluble on expression in E. coli” value is given as “not soluble”.

As for “MGSDKIHHHHHHMSTILLPKTQHLVVFQEVIRSGSIGSAAKELGLTQPAVSKIINDIEDYFGVELVVRKNTGVTLTPAGQLLLSRSESITREMKNMVNEISGMSSEAVVEVSFGFPSLIGFTFMSGMINKFKEVFPKAQVSMYEAQLSSFLPAIRDGRLDFAIGTLSAEMKLQDLHVEPLFESEFVLVASKSRTCTGTTTLESLKNEQWVLPQTNMGYYSELLTTLQRNGISIENIVKTDSVVTIYNLVLNADFLTVIPCDMTSPFGSNQFITIPVEETLPVAQYAAVWSKNYRIKKAASVLVELAKEYSSYNGCRRRQLIEVG”, the “soluble on expression in E. coli” value was “not soluble”. In the case of “MSEDLNAGPKVNREFKNSVFTLLFNEVEAIRDIAGAVGAMLGKEINPDTPIKKTTLQNALLGGKLNDLSFVLDDKLIVLIEHQSTINKNMPLRMLHYISEIYNRLYDKKDLYKREKISIPKPVFIVLYNGEEDIKDFEEYLLSDLFKDFDISKEPPCLELRVQVRNINKGHSAEIVKQSPLLRDYVAFVEEVREANREEGASPELAMEKAVENCIKKGILTIFLTRHKEEVIKMLVAEWDYELDLEVAKEEAHEKGLSQGRDEERRKNIKDLYRIGVGIETIAKAFDLSERQVKDILGL”, the “soluble on expression in E. coli” value is listed as “not soluble”. As for “MTIRINNISLDINEDLSLLKNKVAKKLRMSKDEIGDIKIIKESLDARKKNLIKFNYCINIEHEDEEKIVARLNDKDVKIDKVNYDFDFNFGEKKLQHRPVVIGLGPAGLFAALLLAKKGFNPIVFERGEDVDSRTKTVEEFWRTGELNPESNVQFGEGGAGAFSDGKLTTRIKDTRCDYVLDALVRNGAPEEIIYKGKPHVGTDILKNVVKNIREEIKRHGGEVHFNSRFEGIIKKDNKLKGIKVNGEEVPCEVAILALGHSSRDTYEMLFNEGVFMKQKPFAIGVRIEHPQEIINLSQYGEKYANHPRLKAAEYRLAYQSKTLDRAVYSFCMCPGGVVVNASSEEKRLCVNGMSYHARDKENANSALVVTVGPNDFGGDHPLEGMKFQRHYEELAFKLGGGNYNTPVQLVGDFMKDRVTTKLGKVNPSVLSNGYRFEDLRKCLPSYVIDGLKEGITDFDRKIKGFGHSDSVLTGIETRTSAPVRIERNEKLQSISLEGLYPAGEGAGFAGGIVSAAVDGLKVAENIMKEYRVLEHHHHHH”, the “soluble on expression in E. coli” value is “not soluble”. “MSLRDEQEIYNLVLNIANQDKRIEAVLLNGSRANPNVPKDDFQDYDIVFVTNFIEDIISDTNYHKKFGDILIMQKPNEFRNKTEYNCFAYLMQFQDLTRIDLRLIKPEFLEDYLDDAFSKVLLDKKNKYLDYNFERSSLYETKQLSEDEINKILNEIYWVSTYVVKGIARNDIIYSEFMISNPIKNAFIKLLKQKILIEKELDSLSFGKLDKDILQYITDKDQLLKIFSNKSLKDIEANLRFLLDETNQMAKYISINRKLNLNQGEYQSAMKFMNIFLSNSYQNFNEGHHHHHH”: the “soluble on expression in E. coli” value is listed as “soluble”. For “MRDLLNDLSEGLSHPDPILRAQIQMQKPLPKRFYKDVTVADVEEGGFTILLDGKPLRTPAKKPLVAPSRALADLLRDEWDAQKEVVNPVVMPVSRHVNTAIDGIASDTQAVFEDILRFSSSDLLCYRAGDPEALVARQTDYWDPVLDWATNVLGARFILVEGVMHRDQPREAIAAFAVTLKKYDTPIALAALHTMTSLTGSAILALALAEGELTLEEAWALAHLDEDWTAEQWGEDEEALERRAVRLIDMRAALNVLESLKSAS”, the “soluble on expression in E. coli” value was “soluble”. As to “MGSDKIHHHHHHMKSFRNIMGDSQNLDKRIQKIKQNVINDTDVKHFLEKNRSNITNEMIDEDLNVLQEYKDQQKVYDGHRYDDCPNFVKGHVPELYIENERIKIRYLPCPCKIKHDEERFDSQLITSHHMQRDTLHAKLKDIYMNNRERLDVAMAADQICTAITNDEKVKGLYLYGPFGTGKSFILGAIANQLKSQKISSTIVYLPEFIRTLKGGFKDGSFEKKLQRVREANILMLDDIGAEEVTPWVRDEVIGPLLHYRMVHELPTFFSSNFNYSELEHHLSITRDGTEKTKAARIIERIKTLSTPYYLTGKNFRNN”, the “soluble on expression in E. coli” value was “not soluble”.

Turning to “MSLMTKENNKSAAETEEWKKEYALRDELLKQEKENKKFEKELYQKQNKVRQAENKLKKEKSEYYNVLEDTEKYRMYIGEVGVQGEGVEVTLEDASYIPEGENVNSYIVHESHIFQVVNELYISGAALVAVNGQRLTHDSYIKCNGPVVTVDGVQHPAPFTVSAIGDPDVLLPSLNIAGGLIDQLSMDHISVSAEKEKNVQMKPILKTKEEGHHHHHH”, the “soluble on expression in E. coli” value was “soluble”. The value for “MPVKIPDHLPAAGILESENIFVMSETRAANQDIRPMKVLILNLMPNKIETETQLLRLLGNTPLQVDVDLLRIHDKESKHTSIDHMNTFYRDFEDVRHKNYDGLIITGAPLGQIDFEDVTYWDHIREIIDWSQQHVTSVLFLCWAAHAGLYHLYGLNRKILEQKRSGVFVHRRTCQHFPLLRGFDDEFFAPHSRFAEMDVEEIRQHPQLQLLAESDEAGAYLVLSRNNRNLFVMGHPEYQKSTLNDEYHRDLAQSLNPNVPQNYYRNDDPKADAIARWHSHGSLLVSNWLNYYVYQLTPYDLSDMTAMTPWESQMAGDPLEHHHHHH” was “soluble”; that for “MSLFIRDNHLHTHHSYDSDANFTDYLTHFDGEIVTTEHYDLSNPYTKQDDVPDYESYSHEVEKLNLKYGNRIKRGIEIGYYQPRESDILDFLDGKDYDLKLLSVHHNGVNDYLDDEVAEMDKANIIQEYLDKLEYAVGRVDADVLAHFDYGFRLFDVTVDELKAYENQLKRIFKKMIANDLAFELNSKSMYLYHHEGLYRYVLALVKDLGCRKYSIGSDGHKLEHFRLNFDKIQELLREFEITEDMEGHHHHHH” was “not soluble”; that for “MSLSKVRYGVVSTAKVAPRFIEGVRLAGNGEVVAVSSRTLESAQAFANKYHLPKAYDKLEDMLADESIDVIYVATINQDHYKVAKAALLAGKHVLVEKPFTLTYDQANELFALAESCNLFLMEAQKSVFIPMTQVIKKLLASGEIGEVISISSTTAYPNIDHVTWFRELELGGGTVHFMAPYALSYLQYLFDATITHASGTATFPKGQSDSQSKLLLQLSNGVLVDIFLTTRLNLPHEMIIYGTEGRLIIPHFWKTTHAKLVRNDTSARTIQVDMVSDFEKEAYHVSQMILEGQRVSHIMTPQLTLSGVKIIEDLYRSWGKEGHHHHHH” was “soluble”. Regarding “MAHHHHHHMGYLLEREQQRYSRHESAESATAFFASRGQTIDILGRTDPNQIKGNFFGLELYQDAMKVVMQRYTPEKRLTSADLWQPNALGDAPPPRHTLHRKLDDFLYLIVQEGATGKWTIPHTARKDDESLRMTADRAISSQNSEGLDCYVWSNAPQATVFLKDDNTRLFIYAATYLAGRPQFASFEPKPKDHAWVTRHELLQYSDTFKSAELLKALLDISADGTFEA”, the “soluble on expression in E. coli” value is reported as “not soluble”. The value for “MRKKEDKYDFRALGLAIKEARKKQGLTREQVGAMIEIDPRYLTNIENKGQHPSLQVLYDLVSLLNVSVDEFFLPASSQVKSTKRRQLENKIDNFTDADLVIMESVADGIVKSKEVGEMAGENLYFQ” was “soluble”.
